Where a chain is given by its changes, count along the chain named.
Experiments:
rPEDF variant S227A = system: T1, rPEDF variant S227A
T1 sequence: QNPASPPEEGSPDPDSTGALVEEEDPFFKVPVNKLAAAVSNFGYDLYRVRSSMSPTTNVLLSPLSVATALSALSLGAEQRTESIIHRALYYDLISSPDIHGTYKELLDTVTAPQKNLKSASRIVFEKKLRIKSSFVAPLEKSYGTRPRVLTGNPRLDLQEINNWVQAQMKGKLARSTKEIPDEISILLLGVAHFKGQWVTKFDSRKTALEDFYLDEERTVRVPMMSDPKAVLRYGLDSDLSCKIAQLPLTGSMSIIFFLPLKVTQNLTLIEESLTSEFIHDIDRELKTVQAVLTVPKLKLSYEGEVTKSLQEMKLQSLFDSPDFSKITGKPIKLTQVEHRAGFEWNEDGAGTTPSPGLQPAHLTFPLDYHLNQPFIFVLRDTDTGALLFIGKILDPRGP

[1] = system: T2, PEDF purified from human plasma
T2 sequence: T1 sequence with A208S

[2] = system: T3, recombinant PEDF (recombinant wild-type human pigment epithelium derived factor)
T3 sequence: T1 sequence with A208S

rPEDF variant S227E = system: T4, rPEDF variant S227E
T4 sequence: T1 sequence with A208E

[3] = system: T5, rPEDF double variant S24,114A
T5 sequence: T1 sequence with S5A, S95A, A208S

rPEDF variant S24A = system: T6, rPEDF variant S24A
T6 sequence: T1 sequence with S5A, A208S

rPEDF variant S114A = system: T7, rPEDF variant S114A
T7 sequence: T1 sequence with S95A, A208S

rPEDF variant S114E = system: T8, rPEDF variant S114E
T8 sequence: T1 sequence with S95E, A208S

[4] = system: T9, rPEDF double variant S24,114E
T9 sequence: T1 sequence with S5E, S95E, A208S

rPEDF variant S24E = system: T10, rPEDF variant S24E
T10 sequence: T1 sequence with S5E, A208S

Substance	in vitro PKA phosphorylation (autoradiography) (rPEDF variant S227A)	in vitro PKA phosphorylation ([γ32P]-ATP, heparin, autoradiography) [1]	in vitro PKA phosphorylation ([γ32P]-ATP, heparin, autoradiography) [2]	in vitro PKA phosphorylation (autoradiography) (rPEDF variant S227E)	in vitro CK2 phosphorylation (autoradiography) [3]	in vitro CK2 phosphorylation (autoradiography) (rPEDF variant S24A)	in vitro CK2 phosphorylation (autoradiography) (rPEDF variant S114A)	in vitro CK2 phosphorylation (autoradiography) (rPEDF variant S114E)	in vitro CK2 phosphorylation ([γ32P]-ATP, autoradiography) [1]	in vitro CK2 phosphorylation ([γ32P]-ATP, autoradiography) [2]	in vitro CK2 phosphorylation (autoradiography) [4]	in vitro CK2 phosphorylation (autoradiography) (rPEDF variant S24E)
catalytic subunit of PKA	Mutation of Ser227 to Ala or to Glu completely abolished PKA phosphorylation	Both rPEDF and plPEDF were equally phosphorylated by PKA in the presence of heparin	Both rPEDF and plPEDF were equally phosphorylated by PKA in the presence of heparin	Mutation of Ser227 to Ala or to Glu completely abolished PKA phosphorylation								
recombinant human CK2 (casein kinase 2)					the double variant S24,114A almost completely abolished this phosphorylation	Mutation of S24A significantly reduced CK2 phosphorylation	The S114A variant significantly reduced CK2 phosphorylation	both S114E and S24,114E mutations significantly increased CK2 phosphorylation compared with CK2 phosphorylation of rPEDF	Both rPEDF and plPEDF were phosphorylated by CK2; CK2 phosphorylation of rPEDF was stronger than the phosphorylation of plPEDF	Both rPEDF and plPEDF were phosphorylated by CK2; CK2 phosphorylation of rPEDF was stronger than the phosphorylation of plPEDF	both S114E and S24,114E mutations significantly increased CK2 phosphorylation compared with CK2 phosphorylation of rPEDF	the S24E mutation reduced phosphorylation only to a moderate extent

— patent US20090269320
